Experimental data: article PMC12724371 (2025)

Biological target: T1, OC43 spike S2 subunit extracellular domain with T4 foldon (HCoV-OC43)
T1 chain: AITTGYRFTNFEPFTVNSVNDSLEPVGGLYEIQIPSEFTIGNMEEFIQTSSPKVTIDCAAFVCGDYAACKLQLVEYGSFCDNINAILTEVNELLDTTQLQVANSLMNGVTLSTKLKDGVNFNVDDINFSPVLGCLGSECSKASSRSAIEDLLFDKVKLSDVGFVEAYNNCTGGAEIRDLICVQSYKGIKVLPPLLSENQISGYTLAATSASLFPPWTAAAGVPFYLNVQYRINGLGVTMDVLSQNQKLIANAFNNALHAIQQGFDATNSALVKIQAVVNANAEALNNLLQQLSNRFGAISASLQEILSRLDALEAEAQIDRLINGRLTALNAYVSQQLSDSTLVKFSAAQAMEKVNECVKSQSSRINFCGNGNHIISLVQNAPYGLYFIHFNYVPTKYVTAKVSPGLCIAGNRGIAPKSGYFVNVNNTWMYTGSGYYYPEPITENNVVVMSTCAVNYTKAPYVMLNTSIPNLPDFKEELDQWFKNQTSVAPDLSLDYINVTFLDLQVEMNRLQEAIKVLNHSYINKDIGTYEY
Assay: BLI

B1: 1871 Fab (Fab, V domains shown)
VH: EVQLVESGGGLVKPGGSLRLSCVASGFSFSIYSMNWVRQAPGKGLEWVSYISSSSSYKYYADSVKGRFSVSRDNAKNSLYLQLNGLRAEDTAVYYCARDGYCPKGVCTYYGMDVWGQGTTVTVSA
VL: EIVMTQSPATLSVSPGERVTLSCRASQSVRSRLAWFQQKPGQAPRLLIYDASIRATGIPARFSGSGSGTEFTLIISSLQSEDFAVYYCQQYDNWPPAYTFGQGTKLEIK
In the case of B1, the Kd is reported as under 1 pM.
